Test results as given in patent US20240360233A1 (University of Texas, published 2024).
Substitutions are numbered along the chain they refer to. Blank lines part the entries; values can stand above or below the binder they belong to.

Tests used:
[1] = target: T1, his-tagged TSLPR (TSLPR-HIS) (UniProt Q9HC73 23-231, limits assumed); assay: BLI (ForteBio AHQ sensor), antibody captured, TSLPR-HIS in solution
T1 construct: Soluble protein used in the ForteBio assay; not shown: His tag
T1 sequence (looked up): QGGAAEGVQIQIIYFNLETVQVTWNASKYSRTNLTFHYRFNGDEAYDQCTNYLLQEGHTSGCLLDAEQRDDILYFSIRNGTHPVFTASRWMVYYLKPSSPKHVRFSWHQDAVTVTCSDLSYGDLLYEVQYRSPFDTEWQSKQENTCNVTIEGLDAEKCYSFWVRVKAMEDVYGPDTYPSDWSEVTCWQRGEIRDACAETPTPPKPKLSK
Procedure: (§1) TSLPR antibody clones whose VH and VL sequences are disclosed in Tables 9 and 10 were bound to the AHQ sensor and his-tagged TSLPR (TSLPR-HIS) was provided in solution. […] The anti-TSLPR antibodies were serially diluted with an HBS-EP solution (GE Healthcare), and 100 μL of the solution was added to the flow path at a flow rate of […].

[2] = target: T1, his-tagged TSLPR (TSLPR-HIS); assay: BLI (ForteBio AHQ sensor), antibody captured, TSLPR-HIS and TSLP in solution; competitor TSLP
Procedure: as §1

B1: TSLPR antibody clone 10C4 (antibody, V domains shown)
VH: QVQLQESGPGLVKPSGTLSLTCAVSGGSINSNNWWSWVRQPPGKGLEWIGDIYHSGSTNYNPSLKSRVTISVDKSKSQFSLKLSSVTAADTAVYYCARRRWLQHFDFWGQGTLVTVSS
VL: DIQMTQSPSTLSASVGDRVTITCRASQSITNWLAWYQQKPGKAPKLLIYKASSLESGVPSRFSGSGSGTEFTLAISSLQPDDFATYYCQQYNIYPLAFGGGTKVEIKR
notes: Captured on an anti-human IgG sensor
- Kd [1]: 4.86 nM
- koff [1]: 0.000334 s⁻¹
- kon [1]: 68800 M⁻¹ s⁻¹

B2: TSLPR antibody clone 2B2 (antibody, V domains shown)
VH: QVQLVESGGGVVQPGRSLRLSCAASGFTFSNYGMHWVRQAPGKGLEWVSFIWYDGSHRYYADSVKGRFTISRDNSKNTLYLQMNSLRAEDTAVYYCAKGRGGLDWYFDLWGRGTLVTVSS
VL: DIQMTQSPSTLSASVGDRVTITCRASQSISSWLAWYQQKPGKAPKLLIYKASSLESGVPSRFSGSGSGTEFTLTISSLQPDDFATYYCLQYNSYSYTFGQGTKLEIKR
notes: as for B1
- TSLPR-TSLP Response [2]: 21.2%
- Kd [1]: 8.07 nM
- koff [1]: 0.00324 s⁻¹
- kon [1]: 401000 M⁻¹ s⁻¹

B3: TSLPR antibody clone 1G3 (antibody, V domains shown)
VH: QVQLVESGGGVVQPGRSLRLSCAASGFTFSSYGMHWVRQTPGKGLEWVAVMWYDGRNKYYADSVKGRFTISRDNSKNTLYLQMNSLRAEDTAVYYCARDRIMVRGVIIPHVFDIWGQGTMVTVSS
VL: EIVMTQSPATLSVSPGERATLSCRASQSVSSNLGWYQQKPGQAPRLLIYGASTRATGIPARFSGSGSGTEFILTISSLQSEDFAVYYCQEYNNWWTFGQGTKVDIKR
notes: as for B1
- Kd [1]: 11.7 nM
- koff [1]: 0.0021 s⁻¹
- kon [1]: 179000 M⁻¹ s⁻¹

B4: TSLPR antibody clone 1A10 (antibody, V domains shown)
VH: QVQLQESGPGLVKPSETLSLTCNVSGGSISTYYWNWLRQPPGKGLEWIGSIYYSGTTNYNPSLKSRVTISVDTSKHQFSLRLTSVTAADTAVYFCARDQGYYHGSGSYFFDYWGQGTLVTVSS
VL: EIVMTQSPATLSVSPGERATLSCRASQSVSSHLAWYQQKPGQAPRLLIYGASTRATGIPARFSGSGSGTEFTLTISSLQSEDFAIFYCQQYNNWPLTFGGGTKVDIKR
notes: as for B1
- Kd [1]: 8.9 nM
- koff [1]: 0.00119 s⁻¹
- kon [1]: 133000 M⁻¹ s⁻¹

B5: TSLPR antibody clone 1F6 (antibody, V domains shown)
VH: QVQLVQSGAEVRKPGSSVKVSCKASGGTVSSYAISWVRQAPGQGLEWMGGITPIFGTAKYAQKFQGRVTITADKSTSTAYMELSSLRSEDTAVYYCARGGIAAAGTFDYWGQGTLVTVSS
VL: not shown
notes: as for B1
- Kd [1]: 3.9 nM
- koff [1]: 0.00137 s⁻¹
- kon [1]: 351000 M⁻¹ s⁻¹

B6: TSLPR antibody clone 2H4 (antibody, V domains shown)
VH: B5 VH with R12K, V29F, S30N, A79T, G99P, A102I, A103V, T106P
VL: not shown
notes: as for B1
- TSLPR-TSLP Response [2]: 32.2%
- Kd [1]: 5.91 nM
- koff [1]: 0.0015 s⁻¹
- kon [1]: 254000 M⁻¹ s⁻¹

B9: TSLPR antibody clone 2D11 (antibody, V domains shown)
VH: QVQLQESGPGLVKPSETLSLTCAVSGYSISSGYYWGWIRQPPGKGLEWIGRIYHSGTTSYNPSLKRRVTISVDTSKNQFSLKLSSVTATDTAVYYCARNWGGNWFDPWGQGTLVTVSS
VL: DIQMTQSPSSLSASVGDRVTITCRASQGISNYLAWYQQKPGKVPKLLIYAASTLQSGVPSRFSGSGSGTDFTLTISSLQPEDVATYYCQKYNSARTFGQGTKVDIKR
notes: as for B1
- TSLPR-TSLP Response [2]: 83.2%
- Kd [1]: 5.29 nM
- koff [1]: 0.000881 s⁻¹
- kon [1]: 167000 M⁻¹ s⁻¹

B11: TSLPR antibody clone 3E5 (antibody, V domains shown)
VH: EVQLLESGGGLVQPGGSLRLSCAASGFTFSSNAMSWVRQAPGKGLEWVSAIRGRGGSTYYADSVKGRFTISRDNSKNTLYLQLNSLRAEDTAVYYCAKDRIVVAGPFDHWGQGTLVTVSS
VL: DIQLTQSPSFLSASVGDRVTITCRASQGISSYLAWYQQKPGKAPKLLIYAASTLQSGVPSRFSGSGSGTEFTLTISSLQPEDFATYYCQQLNRYPLTFGGGTKVDIKR
notes: as for B1
- Kd [1]: 6.81 nM
- koff [1]: 0.00139 s⁻¹
- kon [1]: 204000 M⁻¹ s⁻¹

B12: TSLPR antibody clone 2E6 (antibody, V domains shown)
VH: EVQLLESGGNLVQPGGSLRLSCAASGFTFGSYVMTWGRQAPGKGLEWVSTISASGGSTYYADSVKGRFTISRDNSKNTLYLQMNSLRAEDTAVYYCAKDKWGKGFDIWGQGTMVTVSS
VL: B11 VL with R93S, L96P, D105E
notes: as for B1
- TSLPR-TSLP Response [2]: 82.6%
- Kd [1]: 7.63 nM
- koff [1]: 0.0014 s⁻¹
- kon [1]: 184000 M⁻¹ s⁻¹

B15: TSLPR antibody clone 1D10 (antibody, V domains shown)
VH: QVQLQESGPGLVKPSETLSLTCTVSGGSISRYYWSWIRQPPGKGLEWIGYIFYNKNTNYNPSLKSRVTISVDTSKNQFSLKLSSVTAADTAVYYCARYIAAIYTDLYYFDYWGQGTLVTVSS
VL: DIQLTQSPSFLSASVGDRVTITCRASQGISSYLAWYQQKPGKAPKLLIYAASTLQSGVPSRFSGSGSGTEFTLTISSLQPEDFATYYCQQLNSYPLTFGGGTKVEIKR
notes: as for B1
- Kd [1]: < 0.001 nM
- koff [1]: < 1e-07 s⁻¹
- kon [1]: 16200 M⁻¹ s⁻¹

B16: TSLPR antibody clone 2F1 (antibody, V domains shown)
VH: B15 VH
VL: B11 VL with Y87H, R93S, G101M, D105E
notes: as for B1
- TSLPR-TSLP Response [2]: 204%
- Kd [1]: 4.33 nM
- koff [1]: 0.000332 s⁻¹
- kon [1]: 76800 M⁻¹ s⁻¹

B18: TSLPR antibody clone 2H1 (antibody, V domains shown)
VH: EVQLLESGGGLVQPGGSLSLSCAASGFTFSRYGMHWVRQAPGKGLEWVSAISASGGSTYYADSVKGRFTISRDNSKNTLYLQMNSLRAEDTAVYYCAKDKWGYAFDIWGQGTTVTVSS
VL: DIQMTQSPSTLSASVGDRVTITCRASQSISNWLAWYQQKPGKAPKLLIYKASSLESGVPSRFSGSGSGTEFTLTISSLQPDDFATYYCLQYNHYSTFGQGTKVDIKR
notes: as for B1
- TSLPR-TSLP Response [2]: 80%

Continued by falling Kd [1], values first:

- TSLPR-TSLP Response [2]: -3.7%
- Kd [1]: 3.07 nM
- koff [1]: 0.000326 s⁻¹
- kon [1]: 106000 M⁻¹ s⁻¹
B7: TSLPR antibody clone 2A4 (antibody, V domains shown)
VH: QVQLVQSGAEVKKPGASVKVSCKASGYTFTGYYMHWVRQAPGQGLEWMGRFNLHSGVTNYAQKFQGRVTMTRDTSISTVYMDLSRLRSDDTAVYYCARERQWLVQDYFDYWGQGTLVTVSS
VL: DIQMTQSPSSLSASVGDRVTITCRASQSISNYLNWYQQKPGKAPNLLICAASSLQSGVPSRFSGSGSGTDFTLTISSLQPEDFATYYCQQSYSIPPTFGQGTKVDIKR
notes: as for B1

- Kd [1]: 2.33 nM
- koff [1]: 0.00127 s⁻¹
- kon [1]: 545000 M⁻¹ s⁻¹
B8: TSLPR antibody clone 1B9 (antibody, V domains shown)
VH: QVQLQESGPGLVKPSGTLSLTCAVSGGSIRSSNWWSWVRQPPGKGLEWIGEIYHGGTTNNNPSLKSRVTISVDQSKSQFSLKLSSVTAADTAVYYCARHRYSSGLDYWGQGTLVTVSS
VL: DIQMTQTPSTLSASVGDRVTITCRGSHSISNWLGWYRHKPRKAPNLLIYKASSLKSGVPSRFSGSGSGTEFTLTITSLQPDDFATYYCQQYNHYSTFGQGTKVDIKR
notes: as for B1

- TSLPR-TSLP Response [2]: 120%
- Kd [1]: 1.28 nM
- koff [1]: 0.00045 s⁻¹
- kon [1]: 351000 M⁻¹ s⁻¹
B14: TSLPR antibody clone 2F5 (antibody, V domains shown)
VH: EVQLVESGGGLVQSGGSLRFSCAASGFTFSSHPMNWVRQVPGKGLEWVSSISGSGGSTYYADFVKGRFTISRDNSKNTLYLQMNSLRAEDTAVYYCAKGHNSGWKYWGQGTLVTVSS
VL: B11 VL with R93S, L96P, G100Q
notes: as for B1

- Kd [1]: 1.16 nM
- koff [1]: 0.000134 s⁻¹
- kon [1]: 116000 M⁻¹ s⁻¹
B13: TSLPR antibody clone 3D8 (antibody, V domains shown)
VH: QVQLVESGGGVVQPGRSLRLSCAASGFTFSSYVMHWVRQAPGKGLEWVAVIWYAGNKKYYADSVKGRFTISRDNSNNTLYLQMNSLRAEDTAVYYCAREYSSSWHYYGMDVWGQGTTVTVSS
VL: B11 VL with R93S
notes: as for B1

- Kd [1]: 1.01 nM
- koff [1]: 0.000294 s⁻¹
- kon [1]: 292000 M⁻¹ s⁻¹
B17: TSLPR antibody clone 2E4 (antibody, V domains shown)
VH: EVQLLESGGGLVQPGGSLRLSCAASGFTFSSYAMNWVRQAPGKGLEWVSGISGSGGSTYYADSVKGRFTFSRDNSKNTLYLQMISLRAEDTAVYYCAKDQRITMVRGVIGAFDIWGQGTMVTVSS
VL: B18 VL with N31S, L89Q, N92V, H93G, Y94L, S95I, K102R, V103L, D104E
notes: as for B1

- Kd [1]: 0.806 nM
- koff [1]: 0.000191 s⁻¹
- kon [1]: 237000 M⁻¹ s⁻¹
B10: TSLPR antibody clone 2H8 (antibody, V domains shown)
VH: EVQLLESGGGLEQPGGSLRLSCAASGFTFSSHAMNWVRQAPGKGLEWVSAISGSGGSTYYADSVKGRFTISRDNSKNTLCLQMNSLRAEDTAVYYCARGHNSGWPYWGQGTLVTVSS
VL: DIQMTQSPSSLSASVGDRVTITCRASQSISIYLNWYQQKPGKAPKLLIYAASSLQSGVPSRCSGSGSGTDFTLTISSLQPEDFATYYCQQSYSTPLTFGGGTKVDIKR
notes: as for B1
